Experimental findings from patent US20210355204A1 (XOMA TECHNOLOGY, published 2021) are described below.

By Kd is commonly meant a measure of binding affinity in units of concentration. Lower therefore signals a tighter complex. As a reminder, the koff is the rate constant with which the complex falls apart. High values mean a short-lived complex, low ones a long-lived complex. The kon is the rate constant with which the complex forms. A high value points to faster complex formation.

A value given as a limit tells only on which side of the number the result lay.

The target in assay [1] is T1, TGFβ1 (human, UniProt P01137 279-390).
T1 construct: mature; also called transforming growth factor beta 1
In words: SPR. (In general: In SPR one partner is held on a chip, and binding of the other changes the refractive index at the surface.)

Assay [2] deals with T2, TGFβ2 (human, UniProt P61812 303-414).
T2 construct: Commercial recombinant protein; also called transforming growth factor beta 2
T2 sequence (looked up): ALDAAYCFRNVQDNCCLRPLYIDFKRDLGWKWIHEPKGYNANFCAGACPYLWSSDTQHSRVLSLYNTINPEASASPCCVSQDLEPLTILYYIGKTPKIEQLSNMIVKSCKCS
Briefly: SPR.

Assay [3] has as its target T3, TGFβ3 (human, UniProt P10600 301-412).
T3 construct: Commercial recombinant protein; also called transforming growth factor beta 3
T3 sequence (looked up): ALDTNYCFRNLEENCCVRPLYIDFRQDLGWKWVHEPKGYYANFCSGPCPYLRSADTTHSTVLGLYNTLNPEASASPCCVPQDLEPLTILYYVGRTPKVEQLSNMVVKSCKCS
Briefly: SPR.

Assay [4] addresses T1, TGFβ1. Briefly: SPR (Biacore 2000), TGFβ immobilised on CM1 chip, antibody injected. The procedure:
(§1) The chip surface was activated with four minute injections at 20 μL/minute of a freshly mixed 1:1 solution of 0.1M N-Hydroxysuccinimide (NHS) and 0.4M 1-Ethyl-3-(3-dimethylaminopropyl) carbodiimide hydrochloride (EDC). Following the activation injection a 0.1 ug/mL solution of TGFβ in acetate pH 4.0 was injected at 20 μL/minute for several minutes. […] Injections of TGFβ were performed as a series of 1 to 2 minute injections looking at immobilized level between each injection. The target immobilized density of each TGFβ ligand was 30 RU. After the TGFβ immobilization injections, 4 minutes of 1 M Ethanolamine hydrochloride-NaOH pH 8.5 was injected to block the surface.
(§2) Each of the antibodies was diluted in running buffer to 5 μg/mL (33.3 nM) and 4 subsequent five-fold dilutions were prepared setting up concentrations of 33.33 nM, 6.67 nM, 1.33 nM, 267 pM, and 53 pM for each. These were then injected using the Kinject setting for four minutes at 50 μL/minute, with a 900 second dissociation time. Regeneration was then performed with a 12 μL (14.4 second) injection of 100 mM HCl at 50 μL/minute followed by an 18 second buffer injection. Injections were across all flow cells simultaneously and samples were run injected in quadruplicates with blank injections bracketing each set of descending concentration injection groups for each antibody. This means that before the same sample was injected a second time all other concentrations of all antibodies were injected once.
(§3) The data were analyzed using Scrubber2 (BioLogic Software, Campbell Australia) and were double referenced by subtracting both the blank flow cell data and the averaged bracketing blank injections.

For assay [5], the target named is T2, TGFβ2. The assay is described as above. The method, then:
as §1, §2, §3

In assay [6] the target is T3, TGFβ3. Described as above. The procedure:
as §1, §2, §3

The target of assay [7] is T1, TGFβ1. In words: SPR: 4 nM TGFβ without competitor injected over immobilised XPA.42.089 (about 300 RU). The procedure: (§4) A CM5 sensor chip (GE Healthcare) was used on a BIACORE 2000 system. The chip was preconditioned with four 30 second injections at 50 uL/minute flow rate of 100 mM HCl prior to immobilization. Running buffer for immobilization was a HEPES Buffered Saline (HBS-EP+) with 10 mM Hepes, 150 mM Sodium Chloride, 3 mM EDTA, and 0.05% Polysorbate 20. The chip surface was activated with a seven minute injection at 10 uL/minute of a freshly mixed 1:1 solution of 0.1 M N-Hydroxysuccinimide (NHS) and 0.4 M 1-Ethyl-3-(3-dimethylaminopropyl) carbodiimide hydrochloride (EDC). […] Injections were monitored and performed sequentially to establish immobilization levels very close to 300 RU. Eight minutes of 1 M Ethanolamine hydrochloride-NaOH pH 8.5 was injected to block the surface. The NHS, EDC, and Ethanolamine used were from the BIACORE Amine Coupling Kit. Fc1 was the activated and deactivated control.
(§5) Competition assays were performed using a running buffer of thoroughly degassed form of the HBS-EP+ buffer above supplemented with 1 mg/mL BSA. […] The TGFβ-RIIb-Fc recombinant receptor (R&D Systems) also was included as a competitor. Samples were allowed to come to equilibrium for 40 minutes at room temperature before the BIACORE run was started. Equilibrated samples were then injected at 30 uL/minute for three minutes over all of the flow cells. Regeneration was performed every cycle with one injection of 50 mM NaOH at 50 uL/minute for 6 seconds (5 μLs) and followed by a thirty second buffer injection. Samples were run in duplicates and analyzed for level of TGFβ bound at the end of the three minutes.

The target of assay [8] is T2, TGFβ2. The description is as above. The procedure:
as §4, §5

Assay [9] has as its target T3, TGFβ3. Described as above. The procedure:
as §4, §5

Assay [10] has as its target T1, TGFβ1. In words: SPR (Biacore 2000), antibody immobilised on CM4 chip, TGFβ injected. The method, then:
(§6) A CM4 sensor chip (GE Healthcare) was used on a BIACORE 2000 system (GE Healthcare). The chip was preconditioned with two 30 second injections each at 50 μL/minute flow rate of 100 mM HCl, Glycine pH 2.0, 50 mM NaOH, and running buffer prior to immobilization. Running buffer for immobilization was a HEPES Buffered Saline (HBS-EP+) with 10 mM Hepes, 150 mM Sodium Chloride, 3 mM EDTA, and 0.05% Polysorbate 20 (Teknova). The chip surface was activated with a seven minute injection at 10 μL/minute of a freshly mixed 1:1 solution of 0.1 M N-Hydroxysuccinimide (NHS) and 0.4 M 1-Ethyl-3-(3-dimethylaminopropyl) carbodiimide hydrochloride (EDC). Following the activation injection, 1 ug/mL anti-TGFβ antibody in acetate pH 4.5 was injected at 10 μL/minute for one minute, with injections targeting 120 RU. 8 minutes of 1M Ethanolamine hydrochloride-NaOH pH 8.5 was injected to block the surface. The NHS, EDC, and Ethanolamine used were from the BIACORE Amine Coupling Kit.
(§7) Kinetic Analysis was performed using a running buffer of thoroughly degassed form of the HBS-EP+ buffer above supplemented with 1 mg/mL BSA (Sigma Aldrich, St. Louis Mo.). TGFβ sample injections were performed at 50 μL/minute for four minutes with a 900 second dissociation time. […] Regeneration was then performed with three injections of 30 seconds each of 100 mM HCl in 3 M MgCl₂ followed by a final 30 second blank buffer injection.
(§8) The data were analyzed using Scrubber2 (BioLogic Software, Campbell Australia) and was double referenced by subtracting both the blank flow cell data and the averaged bracketing blank injections. […] TGFβ proteins were injected at the same concentrations as described above at 30 μL/minute.

Assay [11] deals with T2, TGFβ2. The description is as above. The method, then:
as §6, §7, §8

Assay [12] deals with T3, TGFβ3. The assay is described as above. The method, then: as §6, §7, §8
In assay [13] the target is T1, TGFβ1. In words: SPR competition: 4 nM TGFβ pre-mixed with 133 nM of the row's molecule, injected over immobilised XPA.42.089 (self competition). The method, then:
as §4, §5

Assay [14] has as its target T2, TGFβ2. Described as above. The method, then: as §4, §5
For assay [15], the target named is T3, TGFβ3. Described as above. The procedure:
as §4, §5

For assay [16], the target named is T1, TGFβ1. In words: cell-based or functional assay.
The target in assay [17] is T2, TGFβ2. In words: cell-based or functional assay.

B1: TGFβ-RI (recombinant form) (receptor, UniProt P36897 34-126, looked up)
chain: LQCFCHLCTKDNFTCVTDGLCFVSVTETTDKVIHNSMCIAEIDLIPRDRPFVCAPSSKTGSVTTTYCCNQDHCNKIELPTTVKSSPGLGPVEL
notes: also called TGFβ receptor type 1 protein; TGFβ-R1
Consider B1, for which the binding result in assay [1], in assay [2] and in [3] was “no binding” in each case.

B2: XPA.42.089 (antibody, IgG2, V domains shown)
VH: QVQLVQSGAEVKKPGSSVKVSCKASGGTFSSYAISWVRQAPGQGLEWMGGIIPIFGTANYAQKFQGRVTITADESTSTAYMELSSLRSEDTAVYYCARGLWEVRALPSVYWGQGTLVTVSS
VL: SYELTQPPSVSVAPGQTARITCGANDIGSKSVHWYQQKAGQAPVLVVSEDIIRPSGIPERISGSNSGNTATLTISRVEAGDEADYYCQVWDRDSDQYVFGTGTKVTVLG
Regarding B2, the Kd is 0.177 nM in [4]; 0.29 nM in [5]; above 17 nM in assay [6]; 0.0038 nM in assay [10]; 0.025 nM in [11]; 1.4 nM in [12]. Also, the koff came out at 0.00106 s⁻¹ in [4]; 0.00139 s⁻¹ in assay [5]; 0.057 s⁻¹ in [6]; 0.000167 s⁻¹ in assay [10]; 0.000414 s⁻¹ in [11]; 0.0109 s⁻¹ in [12]. In addition, the kon in assay [4] is 5.98e+06 M⁻¹ s⁻¹; in assay [5] it was 4.8e+06 M⁻¹ s⁻¹; in [6], 3.4e+06 M⁻¹ s⁻¹; in assay [10], 4.4e+07 M⁻¹ s⁻¹; in assay [11] it was 1.62e+07 M⁻¹ s⁻¹; in assay [12] it was 7.7e+06 M⁻¹ s⁻¹. Further, the “average RU of TGFβ binding” value in assay [7] came out at 63.9 RU; in [8], 61 RU; in assay [9], 23.6 RU; in [13], 1.7 RU; in assay [14] it was 0.363 RU; in assay [15], 9.77 RU. The figures for the “IL-11 Release Assay - IC50 (A549 cells)” value in assay [16] and in assay [17] were 0.037 µg/mL and 0.058 µg/mL, respectively.
